The target in this assay is T1, full-length Kluyveromyces lactis (Kl) Kap123, wild type.
T1 chain: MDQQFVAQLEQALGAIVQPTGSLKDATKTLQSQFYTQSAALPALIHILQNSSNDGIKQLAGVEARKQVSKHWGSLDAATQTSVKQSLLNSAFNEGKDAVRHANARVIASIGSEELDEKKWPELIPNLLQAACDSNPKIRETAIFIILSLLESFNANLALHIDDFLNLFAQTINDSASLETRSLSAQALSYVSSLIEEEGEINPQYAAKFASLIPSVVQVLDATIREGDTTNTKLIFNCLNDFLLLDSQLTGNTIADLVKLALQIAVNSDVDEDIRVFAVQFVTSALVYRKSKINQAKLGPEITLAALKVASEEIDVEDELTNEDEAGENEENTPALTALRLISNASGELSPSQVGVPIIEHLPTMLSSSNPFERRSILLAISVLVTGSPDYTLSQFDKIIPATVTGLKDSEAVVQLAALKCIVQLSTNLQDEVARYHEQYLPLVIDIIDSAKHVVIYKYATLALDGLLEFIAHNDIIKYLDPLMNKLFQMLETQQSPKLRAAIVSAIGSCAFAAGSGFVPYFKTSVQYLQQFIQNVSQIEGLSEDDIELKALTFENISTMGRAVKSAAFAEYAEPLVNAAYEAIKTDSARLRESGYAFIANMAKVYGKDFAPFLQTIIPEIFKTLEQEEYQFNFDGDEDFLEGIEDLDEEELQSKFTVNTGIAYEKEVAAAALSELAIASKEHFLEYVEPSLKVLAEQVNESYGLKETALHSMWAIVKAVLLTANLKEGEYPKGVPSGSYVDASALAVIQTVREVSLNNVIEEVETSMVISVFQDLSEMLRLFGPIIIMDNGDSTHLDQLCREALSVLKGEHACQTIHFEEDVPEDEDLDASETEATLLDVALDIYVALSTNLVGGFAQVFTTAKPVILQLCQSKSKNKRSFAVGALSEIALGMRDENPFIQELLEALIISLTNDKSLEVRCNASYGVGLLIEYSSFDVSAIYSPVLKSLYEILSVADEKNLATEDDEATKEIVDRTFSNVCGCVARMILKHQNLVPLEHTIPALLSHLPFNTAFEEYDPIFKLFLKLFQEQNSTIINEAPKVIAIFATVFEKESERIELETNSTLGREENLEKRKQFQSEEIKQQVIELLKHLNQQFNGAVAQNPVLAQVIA
Kind of assay: SPR. The note with it: chain shown with the change; 7°C; wild-type Kap123 immobilized on a CM5 chip with 7116 RU; peptides injected at 0-10 µM; parent: est. 1.00; read off a plot.

B1: wild-type H4_(1–21)-NLS peptide, P02309 K5Q; K12Q (peptide)
chain: SGRGQGGKGLGQGGAKRHRKI
As to B1, the ratio to parent was 0.4.

Source of the values: PMC5677370, “Structure-based nuclear import mechanism of histones H3 and H4 mediated by Kap123” (eLife, 2017).
